Assay results published in the Human Domainome abundance scans (Beltran et al. 2025).
± gives the uncertainty stated by the source.

B1: POU domain, class 2, transcription factor 1, residues 285 to 354; numbered along this chain, P14859 (parent)
chain: LEELEQFAKTFKQRRIKLGFTQGDVGLAMGKLYGNDFSQTTISRFEALNLSFKNMCKLKPLLEKWLNDAE

Variants of: B1
Assay: abundance fitness (aPCA) (normalised: wild type 0, dead -1); higher = more abundant; growth selection in yeast, the domain comes from the species named
Settings: Homo sapiens

Abundance fitness of substitutions, site by site:
D68: N 0.006 ± 0.024, T -0.048 ± 0.024, Q 0.001 ± 0.023, C -0.106 ± 0.058, R -0.022 ± 0.021, F -0.011 ± 0.08, A -0.024 ± 0.023
L66: F -0.258 ± 0.057, K -0.476 ± 0.028, S -0.167 ± 0.039, W -0.355 ± 0.043, I -0.017 ± 0.046, T -0.206 ± 0.052, R -0.667 ± 0.046, N -0.848 ± 0.17, D -0.854 ± 0.073, M 0.01 ± 0.033, E -0.433 ± 0.039, Y -0.11 ± 0.084, H -0.474 ± 0.11, G -0.411 ± 0.033, Q -0.279 ± 0.056, C -0.071 ± 0.068, A -0.037 ± 0.038, V -0.003 ± 0.023
C56: M 0.034 ± 0.064, K -0.201 ± 0.08, Q 0.063 ± 0.041, A -0.004 ± 0.023, S 0.032 ± 0.022, P -0.681 ± 0.029, H -0.085 ± 0.04, L -0.016 ± 0.033, T 0.023 ± 0.027, V -0.01 ± 0.036, Y 0.042 ± 0.081, I -0.014 ± 0.088, W -0.005 ± 0.039, F 0.027 ± 0.066, G -0.047 ± 0.022
E63: V -0.095 ± 0.086, G -0.023 ± 0.11, A 0.07 ± 0.081, P -0.571 ± 0.19, W -0.075 ± 0.15, S -0.082 ± 0.11, K -0.126 ± 0.09, R -0.199 ± 0.1, L 0.024 ± 0.046, M -0.031 ± 0.048, Q -0.07 ± 0.06, N -0.199 ± 0.26, D -0.45 ± 0.36, I -0.22 ± 0.13, T -0.1 ± 0.12
L61: I -0.097 ± 0.084, G -0.09 ± 0.036, P -0.006 ± 0.063, C -0.188 ± 0.052, R 0.008 ± 0.047, Q -0.053 ± 0.047, W -0.038 ± 0.035, D -0.075 ± 0.061, M -0.053 ± 0.037, S -0.078 ± 0.033, T -0.026 ± 0.053, H 0.016 ± 0.075, N -0.017 ± 0.11, K -0.031 ± 0.042, F -0.005 ± 0.047, V -0.008 ± 0.025
K53: Q -0.019 ± 0.042, F 0.041 ± 0.066, G -0.017 ± 0.023, V -0.048 ± 0.039, I 0.089 ± 0.14, M 0.078 ± 0.15, S -0.006 ± 0.024, Y -0.122 ± 0.072, H -0.024 ± 0.058, R 0.015 ± 0.021, N 0.063 ± 0.21, L 0.008 ± 0.035, T -0.028 ± 0.042, P 0.007 ± 0.022
P60: D -0.042 ± 0.17, R -0.107 ± 0.026, H -0.094 ± 0.034, M -0.065 ± 0.057, I -0.059 ± 0.042, N -0.094 ± 0.041, C -0.051 ± 0.058, L -0.074 ± 0.022, K -0.072 ± 0.047, V -0.141 ± 0.064, S -0.029 ± 0.029, F -0.114 ± 0.037, Q -0.094 ± 0.033, T -0.08 ± 0.036, A -0.066 ± 0.077, Y -0.217 ± 0.04
L62: V -0.102 ± 0.026, E -0.914 ± 0.083, G -0.545 ± 0.067, S -0.567 ± 0.031, C -0.18 ± 0.14, W -1.08 ± 0.17, D -0.354 ± 0.15, M -0.006 ± 0.024, I -0.091 ± 0.041, A -0.149 ± 0.034, Q -0.913 ± 0.069, Y -0.069 ± 0.041, F -0.017 ± 0.032, K -0.937 ± 0.06, T -0.406 ± 0.041, P -0.699 ± 0.064
A69: I -0.027 ± 0.021, Y -0.038 ± 0.021, R 0.013 ± 0.022, K 0.004 ± 0.024, Q 0.057 ± 0.029, H -0.04 ± 0.028, M 0.003 ± 0.02, T -0.012 ± 0.019, E 0.016 ± 0.04, V 0.014 ± 0.024, P -0.112 ± 0.023, N -0.04 ± 0.023, C -0.001 ± 0.022, L -0.064 ± 0.02, W -0.078 ± 0.027, S -0.004 ± 0.018
N67: D 0.024 ± 0.19, S -0.054 ± 0.27
K59: P -0.72 ± 0.027, Q -0.037 ± 0.045, S -0.092 ± 0.023, V -0.056 ± 0.033, H -0.014 ± 0.039, F -0.138 ± 0.037, A -0.028 ± 0.022, W -0.026 ± 0.044, C -0.134 ± 0.039, L -0.06 ± 0.023, D -0.672 ± 0.084, R -0.005 ± 0.023, I -0.13 ± 0.051, G -0.175 ± 0.029, Y -0.072 ± 0.054, M -0.002 ± 0.056, T -0.033 ± 0.031, N -0.311 ± 0.054
K64: R -0.019 ± 0.028, Q -0.011 ± 0.037, D -0.037 ± 0.05, E -0.02 ± 0.029, P -0.387 ± 0.036, S 0.011 ± 0.027, C -0.143 ± 0.068, T -0.04 ± 0.03, A -0.036 ± 0.025, H -0.1 ± 0.058, N -0.022 ± 0.043, Y -0.225 ± 0.058, W -0.113 ± 0.033, G -0.026 ± 0.03
